Publication PMC8666670, “Malonyl-acyl carrier protein decarboxylase activity promotes fatty acid and cell envelope biosynthesis in Proteobacteria” (The Journal of Biological Chemistry, 2021)

B1: MadA(M17A), malonyl-ACP decarboxylase (yiiD gene product) of E. coli (enzyme, UniProt P0ADQ2 1-329, looked up)
chain: MSQLPGLSRETRESIAAYHLRVPQTEEELERYYQFRWEMLRKPLHQPKGSERDAWDAMAHHQMVVDEQGNLVAVGRLYINADNEASIRFMAVHPDVQDKGLGTLMAMTLESVARQEGVKRVTCSAREDAVEFFAKLGFVNQGEITTPTTTPIRHFLMIKPVATLDDILHRGDWCAQLQQAWYEHIPLSEKMGVRIQQYTGQKFITTMPETGNQNPHHTLFAGSLFSLATLTGWGLIWLMLRERHLGGTIILADAHIRYSKPISGKPHAVADLGALSGDLDRLARGRKARVQMQVEIFGDETPGAVFEGTYIVLPAKPFGPYEEGGNEEE
notes: YiiD (MadA) of E. coli, amplified from Top10 genomic DNA, plasmid pPJ604 with M17A to remove a second start site; Cleavage of the His6 tag is reported only for ACP and MadA^C; MadA^C is said to end at residue 329, so the whole protein probably spans 1-329; also called MadA(M17A) mutant
B2: acetyl-acyl carrier protein (acetyl-ACP) (natural protein, UniProt P0A6A8 1-78, looked up)
chain: MSTIEERVKKIIGEQLGVKQEEVTNNASFVEDLGADSLDTVELVMALEEEFDTEIPDEEAEKITTVQAAIDYINGHQA
modifications: prosthetic group with attached acetyl chain (acetyl thioester), made from apo-ACP and acetyl-CoA with [ACP]synthase
B3: acyl carrier protein (ACP) (natural protein, UniProt P0A6A8 1-78, looked up)
chain: B2 chain
notes: acyl carrier protein; The ACP disulfide dimers seen in the sedimentation analysis imply that at least part of the preparation carries the phosphopantetheine thiol (holo-ACP)
B4: MadA^C, carboxy-terminal hot dog domain of E. coli MadA (domain or fragment, UniProt P0ADQ2 171-329, looked up)
chain: GDWCAQLQQAWYEHIPLSEKMGVRIQQYTGQKFITTMPETGNQNPHHTLFAGSLFSLATLTGWGLIWLMLRERHLGGTIILADAHIRYSKPISGKPHAVADLGALSGDLDRLARGRKARVQMQVEIFGDETPGAVFEGTYIVLPAKPFGPYEEGGNEEE
notes: MadA (YiiD) of E. coli, amino acids 171 to 329, amplified from Top10 genomic DNA

Key:
[1] = target: the molecule itself; assay: AUC; sedimentation analysis (methods: sedimentation velocity, 50,000 rpm, interference optics), 0.02 M Tris pH 7.5, 0.5 M NaCl, 20 °C, no reducing agents
[2] = target: GlmU, glucosamine-1-phosphate N-acetyl transferase/N-acetyl-glucosamine-1-phosphate uridylyltransferase of E. … (E. coli, UniProt P0ACC7 1-456); assay: cell-based or functional assay
[3] = target: B1; assay: AUC; sedimentation analysis (methods: sedimentation velocity, 50,000 rpm, interference optics), 0.02 M Tris pH 7.5, 0.5 M NaCl, 20 °C, no reducing agents; conditions: both partners purified
[4] = target: the molecule itself; assay: SEC; gel filtration chromatography of the purified recombinant protein

Sequence of GlmU, glucosamine-1-phosphate N-acetyl transferase/N-acetyl-glucosamine-1-phosphate uridylyltransferase of E. … (P0ACC7 whole entry): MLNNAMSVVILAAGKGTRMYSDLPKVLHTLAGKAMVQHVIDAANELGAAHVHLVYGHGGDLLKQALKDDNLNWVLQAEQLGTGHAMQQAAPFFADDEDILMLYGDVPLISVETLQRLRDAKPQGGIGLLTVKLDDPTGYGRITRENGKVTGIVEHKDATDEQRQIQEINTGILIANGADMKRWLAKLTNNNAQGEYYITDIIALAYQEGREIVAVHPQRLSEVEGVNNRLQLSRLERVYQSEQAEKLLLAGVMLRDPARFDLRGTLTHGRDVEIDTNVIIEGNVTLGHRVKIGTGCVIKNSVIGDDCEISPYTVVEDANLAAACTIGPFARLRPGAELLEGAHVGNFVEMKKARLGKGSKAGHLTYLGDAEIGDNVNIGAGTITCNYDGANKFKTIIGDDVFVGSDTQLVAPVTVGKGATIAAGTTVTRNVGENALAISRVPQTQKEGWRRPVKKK

Binder: B1
stoichiometry N [1]: 2

Binder: B2
apparent KM of the GlmU acetyltransferase half reaction for [^14C]acetyl-ACP (radiochemical TLC assay, 0–32 μM acetyl-ACP) [2]: 20 µM

Binder: B3
stoichiometry N [3]: 2 ACP per MadA dimer

Binder: B4
stoichiometry N [4]: 2
